Source: patent publication US20240270821A1, “GIP/GLP1/GCG TRI-RECEPTOR AGONISTS AND USES THEREOF” (priority 2023, published 2024)

T1: human GIP receptor (human) (UniProt P48546)
T1 sequence (looked up): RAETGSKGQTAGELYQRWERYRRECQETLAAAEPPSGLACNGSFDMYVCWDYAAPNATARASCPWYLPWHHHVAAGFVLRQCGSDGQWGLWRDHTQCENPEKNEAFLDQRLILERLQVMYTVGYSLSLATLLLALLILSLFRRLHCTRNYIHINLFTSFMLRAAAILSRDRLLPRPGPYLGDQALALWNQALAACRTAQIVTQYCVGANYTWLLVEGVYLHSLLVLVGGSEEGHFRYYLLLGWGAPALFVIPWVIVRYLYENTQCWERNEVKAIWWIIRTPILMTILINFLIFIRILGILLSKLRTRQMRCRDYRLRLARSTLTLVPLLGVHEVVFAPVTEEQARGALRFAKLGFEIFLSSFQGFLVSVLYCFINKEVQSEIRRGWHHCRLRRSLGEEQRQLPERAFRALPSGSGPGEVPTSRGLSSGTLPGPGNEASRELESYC


Key:
Test in all cases: cell-based or functional assay
[1] = biological target: human glucagon receptor (human) (UniProt P47871)
Chain of human glucagon receptor (human) (P47871 26-477): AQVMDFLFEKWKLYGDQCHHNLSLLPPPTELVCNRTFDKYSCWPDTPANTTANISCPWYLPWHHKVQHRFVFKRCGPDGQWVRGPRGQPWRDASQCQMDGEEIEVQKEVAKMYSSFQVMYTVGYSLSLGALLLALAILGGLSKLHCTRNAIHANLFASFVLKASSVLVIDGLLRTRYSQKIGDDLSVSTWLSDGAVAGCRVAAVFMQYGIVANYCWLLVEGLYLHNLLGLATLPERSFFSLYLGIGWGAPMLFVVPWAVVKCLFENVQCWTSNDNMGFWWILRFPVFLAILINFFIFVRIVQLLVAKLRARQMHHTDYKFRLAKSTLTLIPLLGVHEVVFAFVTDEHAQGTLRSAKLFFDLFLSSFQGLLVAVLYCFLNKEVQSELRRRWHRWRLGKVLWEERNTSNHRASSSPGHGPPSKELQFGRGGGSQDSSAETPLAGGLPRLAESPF

[2] = biological target: T1, human GIP receptor (human)
hGLP-1R = hGLP-1R (Homo sapiens, UniProt P43220)
Chain of hGLP-1R (P43220 24-463): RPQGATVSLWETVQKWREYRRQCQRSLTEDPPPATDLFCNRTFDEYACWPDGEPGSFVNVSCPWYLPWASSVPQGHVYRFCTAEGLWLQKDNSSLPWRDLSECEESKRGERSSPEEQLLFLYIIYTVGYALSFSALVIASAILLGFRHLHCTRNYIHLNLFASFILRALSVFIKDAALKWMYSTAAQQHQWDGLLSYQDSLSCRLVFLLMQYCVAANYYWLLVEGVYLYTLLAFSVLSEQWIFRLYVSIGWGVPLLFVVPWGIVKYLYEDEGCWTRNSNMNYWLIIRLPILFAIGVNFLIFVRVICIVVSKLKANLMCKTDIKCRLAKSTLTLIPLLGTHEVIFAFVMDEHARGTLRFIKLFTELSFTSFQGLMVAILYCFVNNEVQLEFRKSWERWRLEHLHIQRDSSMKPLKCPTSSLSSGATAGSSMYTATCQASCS

| Binder | Relative cAMP EC50 [1] | cAMP Rel EC50 (in the presence of 1% HSA) [1] | Relative cAMP EC50 [2] | cAMP Rel EC50 (in the presence of 1% HSA) [2] | Relative cAMP EC50 (hGLP-1R) | cAMP Rel EC50 (in the presence of 1% HSA) (hGLP-1R) | Relative cAMP EC50, nM (0.1% casein) [1] | cAMP Rel EC50, nM (1% HSA) [1] | Relative cAMP EC50, nM (0.1% casein) [2] | cAMP Rel EC50, nM (1% HSA) [2] | Relative cAMP EC50, nM (0.1% casein) (hGLP-1R) | cAMP Rel EC50, nM (1% HSA) (hGLP-1R) | cAMP Rel EC50, nM (in the presence of 1% HSA) [1] | cAMP Rel EC50, nM (in the presence of 1% HSA) [2] | cAMP Rel EC50, nM (in the presence of 1% HSA) (hGLP-1R) |
| --- | --- | --- | --- | --- | --- | --- | --- | --- | --- | --- | --- | --- | --- | --- | --- |
| YXQGTFTSDFSKXLDKKAQXAFIEYLLAGGPSSGEPPPGGS (synthetic construct; SITE 2: note = 2-Aminoisobutyric Acid; SITE 13: note = alpha-methyl-leucine; SITE 17: note = Lysine is chemically modified through conjugation of the epsilon-amino group of the Lysine side chain with (2-[2-(2-Amino-ethoxy)-ethoxy]-acetyl)-(gamma-Glu)-CO-(CH2) 18-CO2H; SITE 20: n) [Example 9] | 7.19 nM | 1430 nM | 0.205 nM | 41.8 nM | 1.61 nM | 402 nM | – | – | – | – | – | – | – | – | – |
| YXQGTFTSDFSKXLDKKAQXAFIQYLLAGGPSSGEPPPSEG (synthetic construct; SITE 2: note = 2-Aminoisobutyric Acid; SITE 13: note = alpha-methyl-leucine; SITE 17: note = Lysine is chemically modified through conjugation of the epsilon-amino group of the Lysine side chain with (2-[2-(2-Amino-ethoxy)-ethoxy]-acetyl)-(gamma-Glu)-CO-(CH2) 18-CO2H; SITE 20: n) [Example 27] | 8.91 nM | 1180 nM | 0.41 nM | 72.3 nM | 2.33 nM | 464 nM | – | – | – | – | – | – | – | – | – |
| YXQGTFTSDFSRXLDKKAQXAFIEYLLEGGESSGAPPPSGS (synthetic construct; SITE 2: note = 2-Aminoisobutyric Acid; SITE 13: note = alpha-methyl-leucine; SITE 17: note = Lysine is chemically modified through conjugation of the epsilon-amino group of the Lysine side chain with (2-[2-(2-Amino-ethoxy)-ethoxy]-acetyl)2-(gamma-Glu)-CO-(CH2 )16-CO2H; SITE 20:) [Example 149] | – | – | – | – | – | – | 12.6 nM | 1420 nM | 0.46 nM | 44.9 nM | 3.85 nM | 801 nM | – | – | – |
| YXQGTFTSDFSXXLDKKAQXAFIEYLLEGGESSGAPPPSGS (synthetic construct; SITE 2: note = 2-Aminoisobutyric Acid; SITE 12: note = L-ornithine; SITE 13: note = alpha-methyl-leucine; SITE 17: note = Lysine is chemically modified through conjugation of the epsilon-amino group of the Lysine side chain with (2-[2-(2-Amino-ethoxy)-ethoxy]-acetyl)-(gamma-Glu)) [Example 145] | 3.14 nM | – | 0.539 nM | – | 4.26 nM | – | – | – | – | – | – | – | 693 nM | 108 nM | 1480 nM |
| YXQGTFTSDFSXXLDKKAQXAFIEYLLEGGPSSGAPPPEGS (synthetic construct; SITE 2: note = 2-Aminoisobutyric Acid; SITE 12: note = L-ornithine; SITE 13: note = alpha-methyl-leucine; SITE 17: note = Lysine is chemically modified through conjugation of the epsilon-amino group of the Lysine side chain with (2-[2-(2-Amino-ethoxy)-ethoxy]-acetyl)-(gamma-Glu)) [Example 130] | 3.74 nM | – | 0.411 nM | – | 4.29 nM | – | – | – | – | – | – | – | 1080 nM | 60.5 nM | 865 nM |
| YXQGTFTSDFSRXLDKKAQXAFIEYLLEGGPSSGAPPPSGS (synthetic construct; SITE 2: note = 2-Aminoisobutyric Acid; SITE 13: note = alpha-methyl-leucine; SITE 17: note = Lysine is chemically modified through conjugation of the epsilon-amino group of the Lysine side chain with (2-[2-(2-Amino-ethoxy)-ethoxy]-acetyl)2-(gamma-Glu)-CO-(CH2 )16-CO2H; SITE 20:) [Example 144] | 14.8 nM | – | 0.23 nM | – | 4.02 nM | – | – | – | – | – | – | – | 2600 nM | 46.2 nM | 990 nM |
| YXQGTFTSDFSKXLDKKAQXAFIEYLLAGGPSSGEPPPSEG (synthetic construct; SITE 2: note = 2-Aminoisobutyric Acid; SITE 13: note = alpha-methyl-leucine; SITE 17: note = Lysine is chemically modified through conjugation of the epsilon-amino group of the Lysine side chain with (2-[2-(2-Amino-ethoxy)-ethoxy]-acetyl)2-(gamma-Glu)-CO-(CH2 )16-CO2H; SITE 20:) [Example 25] | 6.8 nM | 939 nM | 0.128 nM | 19.8 nM | 3.34 nM | 520 nM | – | – | – | – | – | – | – | – | – |
| YXQGTFTSDFSXXLDKKAQXAFIEYLLEGGPSSGEPPPSGS (synthetic construct; SITE 2: note = 2-Aminoisobutyric Acid; SITE 12: note = L-ornithine; SITE 13: note = alpha-methyl-leucine; SITE 17: note = Lysine is chemically modified through conjugation of the epsilon-amino group of the Lysine side chain with (2-[2-(2-Amino-ethoxy)-ethoxy]-acetyl)-(gamma-Glu)) [Example 131] | 2.64 nM | – | 0.416 nM | – | 5.51 nM | – | – | – | – | – | – | – | 976 nM | 91.8 nM | 984 nM |
| YXQGTFTSDFSKXLDKKAQXAFIEYLLEGGESSGAPPPSGS (synthetic construct; SITE 2: note = 2-Aminoisobutyric Acid; SITE 13: note = alpha-methyl-leucine; SITE 17: note = Lysine is chemically modified through conjugation of the epsilon-amino group of the Lysine side chain with (2-[2-(2-Amino-ethoxy)-ethoxy]-acetyl)2-(gamma-Glu)-CO-(CH2 )16-CO2H; SITE 20:) [Example 147] | – | – | – | – | – | – | 4.39 nM | 877 nM | 0.343 nM | 108 nM | 4.26 nM | 964 nM | – | – | – |
| YXQGTFTSDFSXXLDKKAQXAFIEWLLEGGHSSGEPPPEGS (synthetic construct; SITE 2: note = 2-Aminoisobutyric Acid; SITE 12: note = L-ornithine; SITE 13: note = alpha-methyl-leucine; SITE 17: note = Lysine is chemically modified through conjugation of the epsilon-amino group of the Lysine side chain with (2-[2-(2-Amino-ethoxy)-ethoxy]-acetyl)-(gamma-Glu)) [Example 127] | 4.35 nM | – | 0.312 nM | – | 4.8 nM | – | – | – | – | – | – | – | 1010 nM | 62.9 nM | 1000 nM |
| YXQGTFTSDFSKXLDKKAQXAFIEWLLAGGPSSGEPPPSEG (synthetic construct; SITE 2: note = 2-Aminoisobutyric Acid; SITE 13: note = alpha-methyl-leucine; SITE 17: note = Lysine is chemically modified through conjugation of the epsilon-amino group of the Lysine side chain with (2-[2-(2-Amino-ethoxy)-ethoxy]-acetyl)-(gamma-Glu)-CO-(CH2) 18-CO2H; SITE 20: n) [Example 20] | 15.4 nM | 587 nM | 0.381 nM | 42.3 nM | 2.45 nM | 326 nM | – | – | – | – | – | – | – | – | – |
| YXQGTFTSDFSKXLDKKAQXAFIEYLLEGGPSSGAPPPSGS (synthetic construct; SITE 2: note = 2-Aminoisobutyric Acid; SITE 13: note = alpha-methyl-leucine; SITE 17: note = Lysine is chemically modified through conjugation of the epsilon-amino group of the Lysine side chain with (2-[2-(2-Amino-ethoxy)-ethoxy]-acetyl)2-(gamma-Glu)-CO-(CH2 )16-CO2H; SITE 20:) [Example 142] | 3.49 nM | – | 0.216 nM | – | 4.37 nM | – | – | – | – | – | – | – | 1230 nM | 14.1 nM | 391 nM |
| YXQGTFTSDFSKXLDKKAQXAFIEYLLAGGPSSGAPPPSGS (synthetic construct; SITE 2: note = 2-Aminoisobutyric Acid; SITE 13: note = alpha-methyl-leucine; SITE 17: note = Lysine is chemically modified through conjugation of the epsilon-amino group of the Lysine side chain with (2-[2-(2-Amino-ethoxy)-ethoxy]-acetyl)-(gamma-Glu)-CO-(CH2) 18-CO2H; SITE 20: n) [Example 14] | 7.23 nM | 1420 nM | 0.17 nM | 34.7 nM | 1.67 nM | 232 nM | – | – | – | – | – | – | – | – | – |
